Assay results taken from US10494657B2, “In vitro production of cyclic peptides” (The University Court of the University of Aberdeen, priority 2012, dated 2019).

B1: PatGmac K594D (protein)
chain: GEDEIESAGVSASEVESSATKQKVALHPHDLDERIPGLADLHNQTLGDPQITIVIIDGDPDYTLSCFEGAEVSKVFPYWHEPAEPITPEDYAAFQSIRDQGLDGKEKEEALEAVIPDTKDRIVLNDHACHVTSTIVGQEHSPVFGIAPNCRVINMPQDAVIRGNYDDVMSPLNLARAIDLALELGANIIHCAFCRPTQTSEGEEILVQAIKKCQDNNVLIVSPTGNNSNESWCLPAVLPGTLAVGAAKVDGTPCHFSNWGGNNTKEGILAPGEEILGAQPCTEEPVRLTGTSMAAPVMTGISALLMSLQVQQGKPVDAEAVRTALLKTAIPCDPEVVEEPERCLRGFVNIPGAMKVLFGQ
B2: PatGmac R589D K594D K598D (protein)
chain: GEDEIESAGVSASEVESSATKQKVALHPHDLDERIPGLADLHNQTLGDPQITIVIIDGDPDYTLSCFEGAEVSKVFPYWHEPAEPITPEDYAAFQSIDDQGLDGKEDEEALEAVIPDTKDRIVLNDHACHVTSTIVGQEHSPVFGIAPNCRVINMPQDAVIRGNYDDVMSPLNLARAIDLALELGANIIHCAFCRPTQTSEGEEILVQAIKKCQDNNVLIVSPTGNNSNESWCLPAVLPGTLAVGAAKVDGTPCHFSNWGGNNTKEGILAPGEEILGAQPCTEEPVRLTGTSMAAPVMTGISALLMSLQVQQGKPVDAEAVRTALLKTAIPCDPEVVEEPERCLRGFVNIPGAMKVLFGQ
B3: H618A: site-directed catalytic triad mutant of PatGmac (inactive mutant) (protein)
chain: GEDEIESAGVSASEVESSATKQKVALHPHDLDERIPGLADLHNQTLGDPQITIVIIDGDPDYTLSCFEGAEVSKVFPYWHEPAEPITPEDYAAFQSIRDQGLKGKEKEEALEAVIPDTKDRIVLNDAACHVTSTIVGQEHSPVFGIAPNCRVINMPQDAVIRGNYDDVMSPLNLARAIDLALELGANIIHCAFCRPTQTSEGEEILVQAIKKCQDNNVLIVSPTGNNSNESWCLPAVLPGTLAVGAAKVDGTPCHFSNWGGNNTKEGILAPGEEILGAQPCTEEPVRLTGTSMAAPVMTGISALLMSLQVQQGKPVDAEAVRTALLKTAIPCDPEVVEEPERCLRGFVNIPGAMKVLFGQ
B4: PatGmac K598D (protein)
chain: GEDEIESAGVSASEVESSATKQKVALHPHDLDERIPGLADLHNQTLGDPQITIVIIDGDPDYTLSCFEGAEVSKVFPYWHEPAEPITPEDYAAFQSIRDQGLKGKEDEEALEAVIPDTKDRIVLNDHACHVTSTIVGQEHSPVFGIAPNCRVINMPQDAVIRGNYDDVMSPLNLARAIDLALELGANIIHCAFCRPTQTSEGEEILVQAIKKCQDNNVLIVSPTGNNSNESWCLPAVLPGTLAVGAAKVDGTPCHFSNWGGNNTKEGILAPGEEILGAQPCTEEPVRLTGTSMAAPVMTGISALLMSLQVQQGKPVDAEAVRTALLKTAIPCDPEVVEEPERCLRGFVNIPGAMKVLFGQ
B5: PatGmacΔ2 (protein)
chain: GEDEIESAGVSASEVESSATKQKVALHPHDLDERIPGLADLHNQTLGDPQITIVIIDGDPDYTLSCFEGAEVSKVFPYWHEPAEPILNDHACHVTSTIVGQEHSPVFGIAPNCRVINMPQDAVIRGNYDDVMSPLNLARAIDLALELGANIIHCAFCRPTQTSEGEEILVQAIKKCQDNNVLIVSPTGNNSNESWCLPAVLPGTLAVGAAKVDGTPCHFSNWGGNNTKEGILAPGEEILGAQPCTEEPVRLTGTSMAAPVMTGISALLMSLQVQQGKPVDAEAVRTALLKTAIPCDPEVVEEPERCLRGFVNIPGAMKVLFGQ
B6: PatGmacΔ1 (protein)
chain: GEDEIESAGVSASEVESSATKQKVALHPHDLDERIPGLADLHNQTLGDPQITIVIIDGDPDYTLSCFEGAEVSKVFPYWHEPAEPITKDRIVLNDHACHVTSTIVGQEHSPVFGIAPNCRVINMPQDAVIRGNYDDVMSPLNLARAIDLALELGANIIHCAFCRPTQTSEGEEILVQAIKKCQDNNVLIVSPTGNNSNESWCLPAVLPGTLAVGAAKVDGTPCHFSNWGGNNTKEGILAPGEEILGAQPCTEEPVRLTGTSMAAPVMTGISALLMSLQVQQGKPVDAEAVRTALLKTAIPCDPEVVEEPERCLRGFVNIPGAMKVLFGQ

Key:
PatGmac = assay: Macrocyclization of substrate peptides by PatGmac; format: biochemical, Prochloron sp.
Method: (§1) For other macrocyclization reactions, 100 μM peptide (e.g. VGAGIGFPAYDG (SEQ ID NO: 68), VGAGIGFPAYRG (SEQ ID NO: 69), or GVAGIGFPAYRG (SEQ ID NO: 84)) was incubated with 20 μM enzyme in a range of buffers for 24 h at 37° C. (see FIGS. 1 to 3).
The VPAPIPFPAYDG (SEQ ID NO: 85) peptide was chosen to match the residues equivalent to P8-P4′, the eight-residue cassette and four C-terminal residue macrocyclization signature.
(§2) PatGmac K598D produced cyclo[VGAGIGFP] with only 8% linear product, at a rate over an order of magnitude faster than wild-type PatGmac with VGAGIGFPAYDG (SEQ ID NO: 68) (FIGS. 2 and 3).
Target sequence in this assay (as listed by the source): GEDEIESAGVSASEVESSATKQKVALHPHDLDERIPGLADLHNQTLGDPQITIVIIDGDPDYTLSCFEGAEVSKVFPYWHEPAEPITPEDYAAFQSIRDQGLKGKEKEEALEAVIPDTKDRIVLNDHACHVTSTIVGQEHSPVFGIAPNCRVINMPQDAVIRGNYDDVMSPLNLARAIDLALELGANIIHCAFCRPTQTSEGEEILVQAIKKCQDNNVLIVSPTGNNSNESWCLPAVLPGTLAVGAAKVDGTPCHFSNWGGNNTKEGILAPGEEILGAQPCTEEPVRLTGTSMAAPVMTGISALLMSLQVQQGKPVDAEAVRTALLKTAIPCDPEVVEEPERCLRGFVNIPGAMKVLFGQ

[…] [1] = Macrocyclization reaction, final product ratios by LC-ESI MS ion counts; format: biochemical; conditions: for Cyclic ion count (%) (M + H = 699) / Linear ion count (%) (M + H = 717) / Unprocessed ion count (%) (M + H = 1123): 100 μM peptide, 50 μM enzyme, 120 h at 37° C.
Method: For macrocyclization reactions comparing final product ratios after substrate depletion, 100 μM peptide (VGAGIGFPAYDG) (SEQ ID NO: 68) was incubated with 50 μM enzyme in 150 mM NaCl, 10 mM HEPES pH 8, 1 mM TCEP for 120 h at 37° C. Samples were analyzed by ESI or MALDI MS (LCT, Micromass or 4800 MALDI TOF/TOF Analyser, ABSciex).
LC-MS was performed using a Phenomenex Sunfire C18 column (4.6 mm×150 mm). Solvent A was H2O containing 0.1% formic acid and solvent B was MeOH containing 0.1% formic acid. Gradient: 0-2 min 10% B; 2-22 min 10% B to 100% B; 22-27 min 100% B; 27-30 min 100% B to 10% B. High resolution mass spectral data were obtained from a Thermo Instruments MS system (LTQ XL/LTQ Orbitrap Discovery) coupled to a Thermo Instruments HPLC system (Accela PDA detector, Accela PDA autosampler and Accela Pump). The following conditions were used: capillary voltage 45 V, capillary temperature 320° C., auxiliary gas flow rate 10-20 arbitrary units, sheath gas flow rate 40-50 arbitrary units, spray voltage 4.5 kV, mass range 100-2000 amu (maximum resolution 30000).
The peptide VGAGIGFPAYDG (SEQ ID NO: 68) was used as a substrate for PatGmac in biochemical assays (FIG. 4C[[c]]). The ratio of macrocyclized to linear product using this substrate peptide was determined by ion counts obtained from liquid chromatography-electrospray ionization mass spectrometry (LC-ESI MS).

[…] [2] = Macrocyclization of substrate with modified recognition sequence (Asp to Arg); format: biochemical
Method: as §1, §2

[…] [3] = Macrocyclization reaction, final product ratios by LC-ESI MS ion counts; format: biochemical

| Molecule | macrocyclization of the substrate by PatGmac (rate) (PatGmac) | product formed (macrocyclized vs linear) ([…] [1]) | Cyclic ion count (%) (M + H = 699) ([…] [1]) | Linear ion count (%) (M + H = 717) ([…] [1]) | Unprocessed ion count (%) (M + H = 1123) ([…] [1]) | ratio of macrocyclized and linear products with VGAGIGFPAYRG ([…] [2]) | reaction rate with VGAGIGFPAYRG ([…] [2]) | substrate consumption rate relative to native protein ([…] [3]) | linear product ([…] [2]) [%] |
| --- | --- | --- | --- | --- | --- | --- | --- | --- | --- |
| VGAGIGFPAYRG | an order of magnitude faster than GVAGIGFPAYRG |  |  |  |  |  |  |  |  |
| VPAPIPFPAYDG [substrate mimic peptide, prolines mimic heterocycles] | can in fact be macrocyclized by PatGmac (albeit slowly) |  |  |  |  |  |  |  |  |
| B1 |  | approximately one third of the product was macrocyclized | 29 | 71 | 0 | equal amounts of macrocyclized and linear products | reacted extremely slowly | approximately the rate of native protein |  |
| B2 |  | only produced linear substrate | 0 | 6 | 94 | equal amounts of macrocyclized and linear products | reacted extremely slowly | substantially slower |  |
| B3 |  | no detectable reaction |  |  |  |  |  |  |  |
| B4 |  | only linear VGAGIGFP | 0 | 100 | 0 |  | over an order of magnitude faster than wild-type PatGmac with […] | approximately the rate of native protein | 8 |
| B5 |  | only linear VGAGIGFP | 0 | >99 | <1 |  |  | approximately the rate of native protein |  |
| B6 |  | only linear VGAGIGFP | 0 | 92 | 8 |  |  | approximately the rate of native protein |  |
